In article PMC12435805 (Nature Chemical Biology, 2025) one finds binding result and Kd data, which are given here for 7 molecules.

By Kd is commonly meant the free concentration of one partner at which half of the binding sites on the other are occupied at equilibrium, for simple one-to-one binding.

B1: GbRBD1 (VHH)
VHH: QVQLVENGGGCVKAGGSLRLSCAVSGRTFSTAAMGWFRQAPGKEREFVAAIRWSGGSAYYADSVKGRFTISRDKAKNTVYLQMNSLKYEDTAVYYCAQTRVTRSLLSDYATWPYDYWGQGTQVMVS
B2: GbLysozyme (VHH)
VHH: DVQLVENGGGCVKAGGSLRLSCAASGSTDSIEYMTWFRQAPGKAREGVAALYTHTGNTYYTDSVKGRFTISQDKAKNMAYLRMDSVKSEDTAIYTCGATRKYVPVRFALDQSSYDYWGQGTQVMVSS
B3: anti-RECQL5 wild-type nanobody (VHH)
VHH: QVQLVESGGGLVQAGGSLRLSCAASGSIFSINRMGWYRQAPGKQRELVAAITSGGSTNYADSVKGRFTISRDNAKNTVYLQMNSLKPEDTAIYYCEAYGTYTLAPTGEGEYDDYWGQGTQVTVS
notes: also called RECQL5 nanobody; anti-RECQL5 nanobody
B4: Nb5-006 (VHH)
VHH: VQLVENSGGGLVQAGGSLRLSCAASGSIFSINRMTWYRQAPGKEREWVAAITSGGSTNYADSVKGRFTISRDNAENTVYLQMNSLKPEDTAVYYCEAYGTYTLAPTGEGEYDDYWGQGTQVTVS
B5: anti-RECQL5 monomeric Gb5-006 (VHH)
VHH: B3 VHH with S7N, L11C, Q13K, G35T, Q44E, L47W, K75E, I92V, T122M
notes: also called G5-006; Gb equivalent
B6: anti-sfGFP monomeric GbEnhancer (VHH)
VHH: QVQLVENGGACVKPGGSLRLSCAASGFPVNRYSMRWYRQAPGKEREWVAGMSSAGDRSSYEDSVKGRFTISRDDARNTVYLQMNSLKPEDTAVYYCNVNVGFEYWGQGTQVMVS
notes: also called GbGFP; sfGFP Gb
B7: truncated RECQL5 protein (11–453) (domain or fragment, UniProt O94762 11-453, looked up)
chain: DPERRVRSTLKKVFGFDSFKTPLQESATMAVVKGNKDVFVCMPTGAGKSLCYQLPALLAKGITIVVSPLIALIQDQVDHLLTLKVRVSSLNSKLSAQERKELLADLEREKPQTKILYITPEMAASSSFQPTLNSLVSRHLLSYLVVDEAHCVSQWGHDFRPDYLRLGALRSRLGHAPCVALTATATPQVQEDVFAALHLKKPVAIFKTPCFRANLFYDVQFKELISDPYGNLKDFCLKALGQEADKGLSGCGIVYCRTREACEQLAIELSCRGVNAKAYHAGLKASERTLVQNDWMEEKVPVIVATISFGMGVDKANVRFVAHWNIAKSMAGYYQESGRAGRDGKPSWCRLYYSRNDRDQVSFLIRKEVAKLQEKRGNKASDKATIMAFDALVTFCEELGCRHAAIAKYFGDALPACAKGCDHCQNPTAVRRRLEALERSSSW
notes: also called RECQ5; DNA helicase RECQL5

Positions count from the first letter of the chain named. Read-outs that look alike come from different tables or passages of the source.

Assay [1] addresses SARS-CoV-2 receptor-binding domain (RBD) (SARS-CoV-2, ancestral strain assumed, UniProt P0DTC2, glycans removed; complex for cryo-EM PEGylated with NHS-PEG4-azide).
Another assay has as its target hen egg white lysozyme (Gallus gallus, UniProt P00698).
The target of assay [2] is B7. Kind of assay: BLI. The note with it: both partners purified.
Assay [3] addresses B7.
The next assay addresses T1, superfolder GFP (Aequorea victoria, engineered …, stabilised).
T1 construct: also called sfGFP
Kind of assay: BLI. As to conditions: both partners purified.

The target in assay [4] is T2, anti-RECQL5 homoDiGb5-006.
T2 construct: also called homoDiGb Gb5-006
Nature of the assay: BLI. As to conditions: both partners purified.

T1 sequence (P42212 other isoform, or with tags, fused parts or gaps, change not shown): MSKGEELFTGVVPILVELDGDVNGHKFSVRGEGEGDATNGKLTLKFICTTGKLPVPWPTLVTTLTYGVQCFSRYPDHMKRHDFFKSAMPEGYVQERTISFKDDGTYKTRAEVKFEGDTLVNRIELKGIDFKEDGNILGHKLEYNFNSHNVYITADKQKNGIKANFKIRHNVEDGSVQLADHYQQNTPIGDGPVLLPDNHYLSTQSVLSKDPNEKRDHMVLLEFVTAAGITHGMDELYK
Sequence of hen egg white lysozyme (P00698 19-147): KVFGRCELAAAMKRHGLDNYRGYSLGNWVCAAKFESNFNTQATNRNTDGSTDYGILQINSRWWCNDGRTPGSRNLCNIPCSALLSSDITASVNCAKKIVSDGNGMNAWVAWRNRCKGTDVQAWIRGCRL

As for B1, the binding result in assay [1] was “binds”.

Consider B2, for which the binding result in the assay with hen egg white lysozyme is reported as “binds”. Consider B3, for which, in assay [2], the Kd is 1.2 µM. For B4, in assay [3], the equilibrium dissociation constant (Kd) turned out to be 1.2 µM. Molecule B5 displayed a Kd in assay [2] of 9 µM. B6: the Kd in the assay with superfolder GFP is 0.005 µM. Take B7: the dissociation constant Kd in assay [4] was determined as 23.4 µM.
